The source of these data is PMC3888030 (Journal of immunology (Baltimore, Md. : 1950), 2013).

Where two headings read alike, the source gives them in different places.

In test [1] the test system is IVS T cells from vaccinated melanoma patients. The format is cell-based, human.
Test [2] has as its system HLA-DR4. The note with it: cited from earlier work.
The target of test [3] is purified HLA-DR4 (HLA-DRB1*0401) (human). As to the kind of experiment: radioligand binding.

Usually IC50 stands for the point on the concentration scale where inhibition reaches its midpoint. Lower therefore signals greater potency in that assay.

Turning to PKYVKQNTLKLAT [HA307–319], the “Background IFN-γ secretion by T cells stimulated with APC + control peptide” value in test [1] (Patient #2, 1 μM peptide stimulation) came out at 213 pg/mL; in test [1] (Patient #2, 10 μM peptide stimulation) it was 208 pg/mL; in test [1] (Patient #4, 1 μM peptide stimulation), 187 pg/mL; in test [1] (Patient #4, 10 μM peptide stimulation), 191 pg/mL; in test [1] (Patient #5, 1 μM peptide stimulation) it was 346 pg/mL; in test [1] (Patient #5, 10 μM peptide stimulation) it was 388 pg/mL. For the same molecule, the “affinity for HLA-DR4” value in test [2] is on record as “high affinity”.

For the molecule “MBP111–129: self peptide from myelin basic protein (PSESDELQTIQEDSAATSE; UniProt P02686 111-129, looked up, fragment)”, the “affinity for HLA-DR4” value in test [2] is “binds weakly”.

B1: gp100 44-59 APL W52A (peptide)
peptide: WNRQLYPEATEAQRLD
B1 had an IC50 in test [3] of 372 nM.

B2: gp100 44-59 APL L48F (peptide)
peptide: WNRQFYPEWTEAQRLD
Consider B2, for which the IC50 in test [3] amounted to 280 nM.

B3: gp100 44-59 APL A55G (peptide)
peptide: WNRQLYPEWTEGQRLD
In turn, B3 had an IC50 in test [3] of 553 nM.

B4: gp100 44-59 APL E54L (peptide)
peptide: WNRQLYPEWTLAQRLD
The molecule B4 came in with an IC50 in test [3] of 65 nM.

B5: gp100 44-59 APL T53V (peptide)
peptide: WNRQLYPEWVEAQRLD
Molecule B5 registered an IC50 in test [3] of 489 nM. Compared with the last molecule, the IC50 is about 7.5-fold higher.

B6: gp100 44-59 APL E54T (peptide)
peptide: WNRQLYPEWTTAQRLD
Consider B6, for which the IC50 in test [3] was found to be 104 nM.

B7: gp100 44-59 APL E51A (peptide)
peptide: WNRQLYPAWTEAQRLD
For the molecule B7, the IC50 in test [3] worked out at 199 nM.

B8: gp100 44-59 APL P50A (peptide)
peptide: WNRQLYAEWTEAQRLD
As to B8, in test [3], the IC50 came out at 189 nM. This IC50 and that of the molecule before are within 1.5-fold of each other.

B9: gp100 44-59 APL Q56A (peptide)
peptide: WNRQLYPEWTEAARLD
As for B9, the concentration for half-maximal inhibition (IC50) in test [3] amounted to 276 nM.
